From publication PMC5087487, “A Graphene Oxide-Based Fluorescent Method for the Detection of Human Chorionic Gonadotropin” (Sensors (Basel, Switzerland), 2016) come the findings set out here.

In this assay the target is T1, Human chorionic gonadotropin (human, UniProt P01215 25-116; P0DN86 21-165).
T1 construct: glycoprotein hormones alpha chain of human chorionic gonadotropin; beta subunit of human chorionic gonadotropin; Glycoprotein hormone; also called hCG; source: bought: Sigma-Aldrich
Kind of assay: other fluorescence titration; 50 nM FITC-peptide first adsorbed on graphene oxide (2 ug/mL, 10 min, fluorescence quenched); protein added, 15 min at room temperature, PBS 20 mM pH 7.2; recovery of fluorescence (excitation 470 nm, emission 518 nm) on release of the peptide from GO. Conditions: both partners purified.

Ends that are not written are not given here. * marks the point of attachment. FITC = O=C1OC2(c3ccc(O)cc3Oc3cc(O)ccc32)c2ccc(NC(=S)*)cc21

T1 sequence (P01215 25-116, chain 1 of 2, other chains not shown): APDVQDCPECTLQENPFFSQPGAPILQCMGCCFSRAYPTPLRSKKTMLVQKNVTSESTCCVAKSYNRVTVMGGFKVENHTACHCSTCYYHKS

B1: FITC-labeled hCG-specific binding peptide aptamer FITC-PPLRINRHILTR (peptide)
peptide: {FITC}-PPLRINRHILTR
notes: In the assay the peptide was first adsorbed onto graphene oxide (GO); also called peptide probe; source: synthetic peptide; bought: Synpeptide Co., Ltd
B1: the binding result was “binds”.
